The values below come from paper PMC6614557 (Nature medicine, 2018).

By Kd is commonly meant a measure of binding affinity in units of concentration. Low values mean a tighter complex, high ones a looser complex. For orientation: stoichiometry N means a count of units in the complex or per binding partner.

The target in data set [1] is T1, ONECUT2 (OC2), OC2-HOX domain (Homo sapiens, UniProt O95948).
T1 sequence (O95948 330-485): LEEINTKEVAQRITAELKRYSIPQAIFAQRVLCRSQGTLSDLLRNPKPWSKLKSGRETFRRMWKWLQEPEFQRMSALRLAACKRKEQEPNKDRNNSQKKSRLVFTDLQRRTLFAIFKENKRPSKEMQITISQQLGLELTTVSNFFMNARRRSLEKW
The data set is described as follows: SPR, His-tagged OC2-HOX immobilized, […] model fit. The class given is binding.

Data set [2] concerns the molecule itself. The data set is described as follows: SEC.
Data set [3] has as its target T2, OC2-HOX (ONECUT2 homeodomain construct) (Homo sapiens, UniProt O95948 330-485).
T2 sequence: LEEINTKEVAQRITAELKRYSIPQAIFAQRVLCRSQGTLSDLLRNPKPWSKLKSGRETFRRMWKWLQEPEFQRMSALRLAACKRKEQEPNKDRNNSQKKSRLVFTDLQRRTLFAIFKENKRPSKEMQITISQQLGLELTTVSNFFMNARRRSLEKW
The data set is described as follows: SPR.

For `NC(CO)C(=O)N/N=C/c1ccc(O)c(O)c1O` (racemic) [CSRM617, 1-{(E)-[(2,3,4-Trihydroxyphenyl)methylidene]hydrazino}−2-amino-3-hydroxy-1-propanone], in data set [1], the Kd amounted to 7.43 µM.

B1: Recombinant OC2-HOX domain (L330-W485) of OC2 (domain or fragment, human, UniProt O95948 330-485, looked up)
chain: LEEINTKEVAQRITAELKRYSIPQAIFAQRVLCRSQGTLSDLLRNPKPWSKLKSGRETFRRMWKWLQEPEFQRMSALRLAACKRKEQEPNKDRNNSQKKSRLVFTDLQRRTLFAIFKENKRPSKEMQITISQQLGLELTTVSNFFMNARRRSLEKW
For the molecule B1, the “stoichiometry N” value in data set [2] was determined as 2.

B2: PEG10 promoter OC2 motif probe (dsDNA)
DNA 1: TAGATCGATTTGCA
DNA 2: TGCAAATCGATCTA
Consider B2, for which the Kd in data set [3] is around 0.001 µM.
